31 molecules from US20260242478A1 (published 2026) can be followed below.

The target of assay [1] is T1, Anti-CD28 Fab (SEQ ID NOs: 696, 697).
T1 construct: In the phage ELISA the Fab was biotinylated and captured on neutravidin coated plates
Briefly: phage ELISA; captured anti-CD28 Fab pre-incubated with CD28 antigen as competitor, anti-M13-HRP. In general terms: ELISA stands for enzyme-linked immunosorbent assay.
T1 sequence (VH, as listed by the source, chain 1 of 2): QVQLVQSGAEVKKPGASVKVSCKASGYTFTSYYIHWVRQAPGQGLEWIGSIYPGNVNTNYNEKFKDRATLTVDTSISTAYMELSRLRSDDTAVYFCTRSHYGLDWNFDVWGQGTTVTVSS
T1 sequence (VL, as listed by the source, chain 2 of 2): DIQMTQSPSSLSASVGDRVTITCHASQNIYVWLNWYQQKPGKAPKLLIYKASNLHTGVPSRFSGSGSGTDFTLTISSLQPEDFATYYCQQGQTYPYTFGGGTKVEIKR
Procedure: (§1) Clonal phage were harvested as crude supematants and screened via standard ELISAs. […] Prior to the addition of clonal phage, wells were incubated with blocking buffer and CD28 antigen or blocking buffer alone. Without washing or aspirating, clonal phage supematants were then added to the wells and incubated for a short time. Wells were then washed followed by detection of bound phage using a horse radish conjugated anti-M13 antibody.

The target is the same in assay [2]. Briefly: phage ELISA; biotinylated anti-CD28 Fab on neutravidin plate, clonal phage detected with anti-M13-HRP.
Target sequence in this assay (VH, as listed by the source, chain 1 of 2): as the sequence (VH, as listed by the source, chain 1 of 2) above
Target sequence in this assay (VL, as listed by the source, chain 2 of 2): as the sequence (VL, as listed by the source, chain 2 of 2) above
Procedure: as §1
The target of assay [3] is T2, Anti-CD28 Fab (SEQ ID NOs: 696, 697).
T2 construct: In the phage ELISA the Fab was biotinylated and captured on neutravidin coated plates
Briefly: phage binding ELISA; biotinylated anti-CD28 Fab on neutravidin plate, bound phage detected with anti-M13-HRP.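 Also: clonal phage tested as crude supernatants, given a short incubation in the Fab-captured wells before bound phage were read.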
T2 sequence (VH, as listed by the source, chain 1 of 2): as the sequence (VH, as listed by the source, chain 1 of 2) above
T2 sequence (VL, as listed by the source, chain 2 of 2): as the sequence (VL, as listed by the source, chain 2 of 2) above
Procedure: (§2) Clonal phage were harvested as crude supematants and screened via standard ELISAs. […] Prior to the addition of clonal phage, wells were incubated with blocking buffer and CD28 antigen or blocking buffer alone. Without washing or aspirating, clonal phage supematants were then added to the wells and incubated for a short time. Wells were then washed followed by detection of bound phage using a horse radish conjugated anti-M13 antibody. Clonal phage of interest were then sent for sequence analysis.

For assay [4] the target is unchanged. Nature of the assay: phage binding ELISA on captured anti-CD28 Fab, wells pre-incubated with CD28 antigen as competitor.
Target sequence in this assay (VH, as listed by the source, chain 1 of 2): as the sequence (VH, as listed by the source, chain 1 of 2) above
Target sequence in this assay (VL, as listed by the source, chain 2 of 2): as the sequence (VL, as listed by the source, chain 2 of 2) above
Procedure: as §2
Assay [5] addresses T3, Anti-CD28 Fab (SEQ ID NOs: 696, 697).
T3 construct: In the phage ELISA the Fab was biotinylated and captured on neutravidin coated plates
Nature of the assay: phage ELISA; clonal phage supernatant on biotinylated anti-CD28 Fab captured on neutravidin plate, anti-M13-HRP detection.
T3 sequence (VH, as listed by the source, chain 1 of 2): as the sequence (VH, as listed by the source, chain 1 of 2) above
T3 sequence (VL, as listed by the source, chain 2 of 2): as the sequence (VL, as listed by the source, chain 2 of 2) above
Procedure: as §1

The target is the same in assay [6]. Nature of the assay: phage ELISA on plate-bound anti-CD28 Fab pre-incubated with CD28 antigen as competitor.
Target sequence in this assay (VH, as listed by the source, chain 1 of 2): as the sequence (VH, as listed by the source, chain 1 of 2) above
Target sequence in this assay (VL, as listed by the source, chain 2 of 2): as the sequence (VL, as listed by the source, chain 2 of 2) above
Procedure: as §1

B1: Phage-1448 peptide (SEQ ID NO: 1744) (peptide)
peptide: TCTAGFSYNWPMCF
notes: tested as crude clonal phage supernatant
Regarding B1, the “Phage binding ELISA, Anti-CD28 Fab signal in the presence of CD28” value in assay [1] is 0.06. In assay [2], the “Phage binding ELISA, Anti-CD28 Fab signal” value was determined as 1.85.

B2: Phage-1437 (peptide-92 library clone, SEQ ID NO: 1733) (peptide)
peptide: TCAAGAYWTWPACF
notes: Tested as clonal phage supernatant; not shown: fused to the pIII filament of the bacteriophage
For the molecule B2, in assay [3], the “Anti-CD28 Fab signal (phage binding ELISA)” value stood at 1.93. In assay [4], the “Anti-CD28 Fab signal in the presence of CD28 (phage binding ELISA)” value turned out to be 0.09.

B3: Phage-1435 (peptide-92 library clone, SEQ ID NO: 1731) (peptide)
peptide: MCSAGAMYPWPLCL
notes: as for B2
For the molecule B3, the “Anti-CD28 Fab signal (phage binding ELISA)” value in assay [3] worked out at 1.93. Besides, the “Anti-CD28 Fab signal in the presence of CD28 (phage binding ELISA)” value in assay [4] stood at 0.07.

B4: Phage-1441 (peptide-92 library clone, SEQ ID NO: 1737) (peptide)
peptide: TCSAGAHYVWPMCF
notes: as for B2
As to B4, the “Anti-CD28 Fab signal (phage binding ELISA)” value in assay [3] came out at 1.91. In addition, in assay [4], the “Anti-CD28 Fab signal in the presence of CD28 (phage binding ELISA)” value is 0.17.

B5: Phage-1450 peptide (SEQ ID NO: 1746) (peptide)
peptide: TCSAGATYSWPQCL
notes: as for B1
For B5, the “Phage binding ELISA, Anti-CD28 Fab signal in the presence of CD28” value in assay [1] was determined as 0.07. Further, the “Phage binding ELISA, Anti-CD28 Fab signal” value in assay [2] came out at 1.84.

B6: Phage-1459 peptide (SEQ ID NO: 1755) (peptide)
peptide: SCAAGAMWPWPVCV
notes: as for B1
As for B6, in assay [1], the “Phage binding ELISA, Anti-CD28 Fab signal in the presence of CD28” value worked out at 0.06. Moreover, in assay [2], the “Phage binding ELISA, Anti-CD28 Fab signal” value was 1.8.

B7: Phage-1457 peptide (SEQ ID NO: 1753) (peptide)
peptide: TCAAGAMWQWPVCL
notes: as for B1
As for B7, in assay [1], the “Phage binding ELISA, Anti-CD28 Fab signal in the presence of CD28” value amounted to 0.06. Besides, the “Phage binding ELISA, Anti-CD28 Fab signal” value in assay [2] came to 1.81.

B8: Phage-1447 peptide (SEQ ID NO: 1743) (peptide)
peptide: TCSAGFSYSWPACF
notes: as for B1
On to B8, for which the “Phage binding ELISA, Anti-CD28 Fab signal in the presence of CD28” value in assay [1] was determined as 0.07. In addition, in assay [2], the “Phage binding ELISA, Anti-CD28 Fab signal” value is 1.86.

B9: Phage-1434 (peptide-92 library clone, SEQ ID NO: 1730) (peptide)
peptide: LCNAGAMYKWPTCL
notes: as for B2
With B9, the “Anti-CD28 Fab signal (phage binding ELISA)” value in assay [3] was found to be 1.94. Also, the “Anti-CD28 Fab signal in the presence of CD28 (phage binding ELISA)” value in assay [4] was found to be 0.06.

B10: Phage-1453 peptide (SEQ ID NO: 1749) (peptide)
peptide: TCSAGATFHWPQCF
notes: as for B1
In the case of B10, in assay [1], the “Phage binding ELISA, Anti-CD28 Fab signal in the presence of CD28” value amounted to 0.08. Also, the “Phage binding ELISA, Anti-CD28 Fab signal” value in assay [2] was 1.83.

B11: Phage-1431 (peptide-92 library clone, SEQ ID NO: 1727) (peptide)
peptide: LCKPGVPNSWPTCL
notes: as for B2
Turning to B11, in assay [3], the “Anti-CD28 Fab signal (phage binding ELISA)” value was determined as 1.95. The “Anti-CD28 Fab signal in the presence of CD28 (phage binding ELISA)” value in assay [4] was 0.06.

B12: Phage-1446 peptide (SEQ ID NO: 1742) (peptide)
peptide: SCAAVFSFPWSPCL
notes: as for B1
With B12, in assay [1], the “Phage binding ELISA, Anti-CD28 Fab signal in the presence of CD28” value came out at 0.08. The “Phage binding ELISA, Anti-CD28 Fab signal” value in assay [2] worked out at 1.87.

B13: Phage-1451 peptide (SEQ ID NO: 1747) (peptide)
peptide: TCSAGAYYAWPVCL
notes: as for B1
For the molecule B13, in assay [1], the “Phage binding ELISA, Anti-CD28 Fab signal in the presence of CD28” value was found to be 0.08. Moreover, the “Phage binding ELISA, Anti-CD28 Fab signal” value in assay [2] amounted to 1.84.

B14: Phage-1445 (peptide-92 library clone, SEQ ID NO: 1741) (peptide)
peptide: TCAAGASYPWPACL
notes: as for B2
In the case of B14, in assay [3], the “Anti-CD28 Fab signal (phage binding ELISA)” value was 1.89. Besides, the “Anti-CD28 Fab signal in the presence of CD28 (phage binding ELISA)” value in assay [4] was 0.09.

B15: Phage-1452 peptide (SEQ ID NO: 1748) (peptide)
peptide: LCRAGAMWPWPTCL
notes: as for B1
On to B15, for which, in assay [1], the “Phage binding ELISA, Anti-CD28 Fab signal in the presence of CD28” value was 0.06. The “Phage binding ELISA, Anti-CD28 Fab signal” value in assay [2] is 1.83.

B16: Phage-1442 (peptide-92 library clone, SEQ ID NO: 1738) (peptide)
peptide: TCSAGATYIWPMCF
notes: as for B2
Take B16: in assay [3], the “Anti-CD28 Fab signal (phage binding ELISA)” value stood at 1.9. Also, in assay [4], the “Anti-CD28 Fab signal in the presence of CD28 (phage binding ELISA)” value is 0.08.

B17: Phage-1460 peptide (SEQ ID NO: 1756) (peptide)
peptide: SCAAGAAYPWPACL
notes: as for B1
As for B17, the “Phage binding ELISA, Anti-CD28 Fab signal in the presence of CD28” value in assay [1] is 0.06. Also, the “Phage binding ELISA, Anti-CD28 Fab signal” value in assay [2] came to 1.8.
For TCSAGATYTWPWCF [Phage-1388 peptide (SEQ ID NO: 1684)], in assay [5], the “Anti-CD28 Fab signal (phage binding ELISA)” value amounted to 2.14. Further, in assay [6], the “Anti-CD28 Fab signal in the presence of CD28 (phage binding ELISA)” value was found to be 0.07.

B18: Phage-1449 peptide (SEQ ID NO: 1745) (peptide)
peptide: TCSAGATYAWPACY
notes: as for B1
For the molecule B18, the “Phage binding ELISA, Anti-CD28 Fab signal in the presence of CD28” value in assay [1] turned out to be 0.14. In addition, the “Phage binding ELISA, Anti-CD28 Fab signal” value in assay [2] was found to be 1.84.

B19: Phage-1436 (peptide-92 library clone, SEQ ID NO: 1732) (peptide)
peptide: TCSAGAMWTWPYCF
notes: as for B2
On to B19, for which, in assay [3], the “Anti-CD28 Fab signal (phage binding ELISA)” value turned out to be 1.93. For the same molecule, in assay [4], the “Anti-CD28 Fab signal in the presence of CD28 (phage binding ELISA)” value turned out to be 0.08.

B20: Phage-1433 (peptide-92 library clone, SEQ ID NO: 1729) (peptide)
peptide: PCAAGAMWPWPVCL
notes: as for B2
Turning to B20, the “Anti-CD28 Fab signal (phage binding ELISA)” value in assay [3] came out at 1.95. In addition, the “Anti-CD28 Fab signal in the presence of CD28 (phage binding ELISA)” value in assay [4] came to 0.06.

B21: Phage-1443 (peptide-92 library clone, SEQ ID NO: 1739) (peptide)
peptide: TCRAGATYNWPFCL
notes: as for B2
Consider B21, for which the “Anti-CD28 Fab signal (phage binding ELISA)” value in assay [3] came out at 1.9. Further, the “Anti-CD28 Fab signal in the presence of CD28 (phage binding ELISA)” value in assay [4] was 0.07.

B22: Phage-1439 (peptide-92 library clone, SEQ ID NO: 1735) (peptide)
peptide: SCSAGASLQLSICL
notes: as for B2
In the case of B22, the “Anti-CD28 Fab signal (phage binding ELISA)” value in assay [3] worked out at 1.92. The “Anti-CD28 Fab signal in the presence of CD28 (phage binding ELISA)” value in assay [4] is 0.06.

B23: Phage-1432 (peptide-92 library clone, SEQ ID NO: 1728) (peptide)
peptide: TCSAGAHYPWPDCI
notes: as for B2
On to B23, for which, in assay [3], the “Anti-CD28 Fab signal (phage binding ELISA)” value worked out at 1.95. Further, in assay [4], the “Anti-CD28 Fab signal in the presence of CD28 (phage binding ELISA)” value was determined as 0.07.

B24: Phage-1444 (peptide-92 library clone, SEQ ID NO: 1740) (peptide)
peptide: TCSAGATWPWPICL
notes: as for B2
In the case of B24, the “Anti-CD28 Fab signal (phage binding ELISA)” value in assay [3] was 1.89. Besides, in assay [4], the “Anti-CD28 Fab signal in the presence of CD28 (phage binding ELISA)” value was 0.08.

B25: Phage-1438 (peptide-92 library clone, SEQ ID NO: 1734) (peptide)
peptide: TCSAGAGYPWPLCY
notes: as for B2
Turning to B25, the “Anti-CD28 Fab signal (phage binding ELISA)” value in assay [3] is 1.92. Moreover, in assay [4], the “Anti-CD28 Fab signal in the presence of CD28 (phage binding ELISA)” value was 0.08.

B26: Phage-1458 peptide (SEQ ID NO: 1754) (peptide)
peptide: PCSAGATYAWLYCV
notes: as for B1
For the molecule B26, the “Phage binding ELISA, Anti-CD28 Fab signal in the presence of CD28” value in assay [1] turned out to be 0.06. The “Phage binding ELISA, Anti-CD28 Fab signal” value in assay [2] turned out to be 1.81.

B27: Phage-1455 peptide (SEQ ID NO: 1751) (peptide)
peptide: QCAAGASYPWPVCL
notes: as for B1
Consider B27, for which the “Phage binding ELISA, Anti-CD28 Fab signal in the presence of CD28” value in assay [1] is 0.07. The “Phage binding ELISA, Anti-CD28 Fab signal” value in assay [2] is 1.82.

B28: Phage-1454 peptide (SEQ ID NO: 1750) (peptide)
peptide: TCSAGAHYEWPYCL
notes: as for B1
In the case of B28, the “Phage binding ELISA, Anti-CD28 Fab signal in the presence of CD28” value in assay [1] is 0.11. Also, in assay [2], the “Phage binding ELISA, Anti-CD28 Fab signal” value was found to be 1.82.

B29: Phage-1440 (peptide-92 library clone, SEQ ID NO: 1736) (peptide)
peptide: TCSAGATWAWPSCF
notes: as for B2
On to B29, for which the “Anti-CD28 Fab signal (phage binding ELISA)” value in assay [3] amounted to 1.92. The “Anti-CD28 Fab signal in the presence of CD28 (phage binding ELISA)” value in assay [4] is 0.1.

B30: Phage-1456 peptide (SEQ ID NO: 1752) (peptide)
peptide: LCKPGVPYQWPTCF
notes: as for B1
Regarding B30, the “Phage binding ELISA, Anti-CD28 Fab signal in the presence of CD28” value in assay [1] worked out at 0.05. In assay [2], the “Phage binding ELISA, Anti-CD28 Fab signal” value was 1.82.
